From patent publication US20100008928A1 (Takeda / Millennium, published 2010)
Residue numbers refer to the chain shown, from its start.

Experiments:
[1] = target: T1, nectin-2 Ig1 domain-deficient protein (human, UniProt Q92692 32-538); experiment: FCM
T1 construct: transient in CHO-K1; also called delta-Ig1; Nectin-2ΔIg1
T1 sequence: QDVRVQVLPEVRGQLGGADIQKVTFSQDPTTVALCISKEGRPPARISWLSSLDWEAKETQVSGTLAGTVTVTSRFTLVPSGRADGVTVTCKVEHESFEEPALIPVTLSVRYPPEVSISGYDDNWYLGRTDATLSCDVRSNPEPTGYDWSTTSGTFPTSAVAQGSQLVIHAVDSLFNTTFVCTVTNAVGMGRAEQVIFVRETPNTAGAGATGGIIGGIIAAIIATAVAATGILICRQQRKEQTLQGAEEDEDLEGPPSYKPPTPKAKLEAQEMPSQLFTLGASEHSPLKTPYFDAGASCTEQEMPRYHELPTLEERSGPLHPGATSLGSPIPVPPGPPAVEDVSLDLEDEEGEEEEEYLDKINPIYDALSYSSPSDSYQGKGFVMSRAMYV
Experimental: (§1) After 200 μL of FCM buffer was added to each well and washed once by centrifugal operation, 50 μL each of Alexa488-labeled secondary antibody diluted in FCM buffer to 10 μg/mL was added to and mixed therewith, and the mixture was then reacted on ice for an hour. The Alexa488-labeled secondary antibody used was Alexa Fluor488 goat anti-human IgG (H+L) for the human antibodies and Alexa Fluor488 goat anti-rabbit IgG (H+L) (Invitrogen) for the rabbit antibody. The cells in each well were washed twice with FCM buffer and then resuspended in 250 μL of FCM buffer. Using the flow cytometer MPL500 (BECKMAN COULTER), the fluorescence intensity of stained cells was measured to determine the ratio of the median value of fluorescence intensities of the respective antibodies in the primary antibody group to the median value of fluorescence intensities in the negative control group.

[2] = target: T2, nectin-2 Ig2 domain-deficient protein (human, UniProt Q92692 32-538); experiment: FCM
T2 construct: transient in CHO-K1; also called delta-Ig2; Nectin-2ΔIg2
T2 sequence: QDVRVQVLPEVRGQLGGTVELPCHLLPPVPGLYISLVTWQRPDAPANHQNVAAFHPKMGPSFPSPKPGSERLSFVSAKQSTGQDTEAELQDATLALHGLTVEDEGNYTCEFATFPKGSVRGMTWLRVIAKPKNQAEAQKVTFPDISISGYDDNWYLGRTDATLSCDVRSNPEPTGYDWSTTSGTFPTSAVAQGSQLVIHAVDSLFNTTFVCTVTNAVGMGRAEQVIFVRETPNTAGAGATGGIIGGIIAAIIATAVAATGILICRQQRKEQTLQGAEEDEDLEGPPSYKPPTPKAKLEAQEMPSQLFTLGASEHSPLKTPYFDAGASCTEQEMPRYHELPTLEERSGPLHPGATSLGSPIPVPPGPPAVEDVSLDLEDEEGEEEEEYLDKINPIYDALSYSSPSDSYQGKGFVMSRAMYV
Experimental: as §1

human nectin-2δ protein [3] = target: T3, human nectin-2δ protein (human, UniProt Q92692 32-538); experiment: FCM
T3 sequence: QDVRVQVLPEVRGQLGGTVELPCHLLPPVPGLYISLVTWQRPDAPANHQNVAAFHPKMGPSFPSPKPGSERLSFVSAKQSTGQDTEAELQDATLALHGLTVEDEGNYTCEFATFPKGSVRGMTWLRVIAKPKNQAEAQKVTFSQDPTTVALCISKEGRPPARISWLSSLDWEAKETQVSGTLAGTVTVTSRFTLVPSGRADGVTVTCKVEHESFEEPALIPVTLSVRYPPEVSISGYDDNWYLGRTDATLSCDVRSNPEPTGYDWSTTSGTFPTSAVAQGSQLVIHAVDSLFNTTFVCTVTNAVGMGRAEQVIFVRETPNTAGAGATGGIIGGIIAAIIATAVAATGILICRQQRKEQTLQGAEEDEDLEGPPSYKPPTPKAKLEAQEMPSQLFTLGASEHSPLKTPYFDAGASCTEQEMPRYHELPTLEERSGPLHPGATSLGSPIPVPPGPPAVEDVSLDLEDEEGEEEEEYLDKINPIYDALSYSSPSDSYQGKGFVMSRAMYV
Experimental: (§2) Then, after 200 μL of FCM buffer was added to each well and washed once by centrifugal operation, 50 μL each of Alexa488-labeled secondary antibody diluted in FCM buffer to 10 μg/mL was added thereto for suspension, and the mixture was then reacted on ice for an hour. As secondary antibodies, Alexa Fluor488 goat anti-human IgG (H+L) was used for the human antibodies and Alexa Fluor488 goat anti-rabbit IgG (H+L) (Invitrogen) was used for the rabbit antibody, respectively. Next, the cells were washed twice with FCM buffer and then resuspended in 250 μL of FCM buffer.

[4] = target: T4, cynomolgus monkey nectin-2 protein (cynomolgus monkey, UniProt Q92692 32-538 (human entry)); experiment: FCM
T4 construct: transient in CHO-K1; also called maNectin-2
T4 chain: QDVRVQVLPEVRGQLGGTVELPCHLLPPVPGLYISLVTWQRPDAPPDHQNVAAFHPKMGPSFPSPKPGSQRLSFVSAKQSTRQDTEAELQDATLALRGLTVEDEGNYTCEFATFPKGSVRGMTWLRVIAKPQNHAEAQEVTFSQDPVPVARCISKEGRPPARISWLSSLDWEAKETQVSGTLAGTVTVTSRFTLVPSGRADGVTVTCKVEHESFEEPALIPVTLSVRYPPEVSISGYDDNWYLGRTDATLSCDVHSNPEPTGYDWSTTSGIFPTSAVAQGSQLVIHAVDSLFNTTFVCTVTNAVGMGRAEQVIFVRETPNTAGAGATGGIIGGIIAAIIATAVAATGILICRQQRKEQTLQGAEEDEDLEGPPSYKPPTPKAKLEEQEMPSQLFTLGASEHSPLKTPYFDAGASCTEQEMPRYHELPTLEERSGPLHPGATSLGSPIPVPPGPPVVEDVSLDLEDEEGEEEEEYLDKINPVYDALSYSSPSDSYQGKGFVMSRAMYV
Experimental: as §2

[5] = target: T5, human nectin-2δ AN77-78PD (human, UniProt Q92692 32-538); experiment: FCM
T5 construct: transient in CHO-K1; also called Nectin-2 (AN77-78PD)
T5 sequence: T3 sequence with A46P, N47D
Experimental: (§3) Then, after 200 μL of FCM buffer was added to each well and washed once by centrifugal operation, 50 μL of Alexa Fluor488 goat anti-human IgG (H+L) diluted in FCM buffer to 10 μg/mL was added thereto for suspension, and the mixture was then reacted on ice for an hour. Next, the cells were washed twice with FCM buffer and resuspended in 250 μL of FCM buffer. Using flow cytometer MPL500 (BECKMAN COULTER), the fluorescence intensities of stained cells were measured, respectively.

human nectin-2δ G113R = target: T6, human nectin-2δ G113R (human, UniProt Q92692 32-538); experiment: FCM
T6 construct: transient in CHO-K1; also called Nectin-2 (G113R)
T6 sequence: T3 sequence with G82R
Experimental: as §3

human nectin-2δ H128R = target: T7, human nectin-2δ H128R (human, UniProt Q92692 32-538); experiment: FCM
T7 construct: transient in CHO-K1; also called Nectin-2 (H128R)
T7 sequence: T3 sequence with H97R
Experimental: as §3

human nectin-2δ protein [6] = target: T3, human nectin-2δ protein; experiment: Cell ELISA
Experimental: In other words, the CHO cell line (#43-2) stably expressing nectin-2δ and the mock-CHO cell line were incubated in a 96-well tissue culture plate charged with GS-selection DMEM medium supplemented with 10% dialyzed FBS and GS supplement. After the culture supernatant of the plate where each cell line became confluent was removed by aspiration, 200 μL/well of PBS(+) supplemented with 2% FBS was added thereto and incubated on ice in the dark for an hour. After the supernatant of each well was removed by aspiration, 50 μL each/well of the hybridoma culture supernatant was added and reacted on ice in the dark for 2 hours. After this plate was washed once with PBS(+) chilled at 4° C., anti-human IgG (H+L) chain specific (GOAT) peroxidase conjugate (CALBIOCHEM) diluted to 3,000-fold with PBS(+) supplemented with 2% FBS was added by 100 μL each/well and reacted on ice in the dark for 2 hours. […] Absorbance (450 nm) of each well was measured using a plate reader (Multiskan BICHROMATIC; Thermo Electron Co.), and those showing absorbance of 0.5 or more in the nectin-2 expression CHO cell line plate and showing absorbance of less than 0.3 in the mock-CHO cell line plate were judged to be positive wells. […]

B1: Nec1-554-1 (antibody, human IgG1, V domains shown)
VH: EVQLVESGGGLVKPGGSLRLSCAASGFTFSSYNMNWVRQAPGKGLEWVSSISSSSSYIYYADSVKGRFTISRDNAKNSLYLQMNSLRAEDTAVYYCARDYYGSGTYYLFDYWGQGTLVTVSS
VL: EIVLTQSPDFQSVTPKEKVTITCRASQSIGSSLHWYQQKPDQSPKLLIKYASQSFSGVPSRFSGSGSGTDFTLTINSLEAEDAAAYYCHQSRSLPITFGQGTRLEIK
notes: human IgG1/k from hybridoma FERM BP-10681
median fluorescence ratio [1]: 3.6
binding result [2]: no binding (tested: ratio <2 = no reactivity; 6 µg/mL)
median fluorescence ratio (human nectin-2δ protein [3]): 43
median fluorescence ratio [4]: 14.8
median fluorescence ratio [5]: 44.2
median fluorescence ratio (human nectin-2δ G113R): 38.7
median fluorescence ratio (human nectin-2δ H128R): 51.5
EC50 (human nectin-2δ protein [6]): 1.11 nM
